# According to patent publication US20080267967A1 (TRILLIUM THERAPEUTICS, published 2008):
# T1: murine CD200R2a (murine, UniProt Q6XJV6 25-249)
# T1 sequence: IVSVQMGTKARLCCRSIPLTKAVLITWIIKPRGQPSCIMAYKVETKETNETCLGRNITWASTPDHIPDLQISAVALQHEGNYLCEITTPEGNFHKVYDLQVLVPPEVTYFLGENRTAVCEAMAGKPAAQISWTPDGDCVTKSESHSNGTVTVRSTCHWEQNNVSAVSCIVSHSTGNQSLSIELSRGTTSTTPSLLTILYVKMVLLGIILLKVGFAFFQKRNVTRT
# T2: murine CD200R3a (murine, UniProt Q5UKY4 26-272)
# T2 sequence: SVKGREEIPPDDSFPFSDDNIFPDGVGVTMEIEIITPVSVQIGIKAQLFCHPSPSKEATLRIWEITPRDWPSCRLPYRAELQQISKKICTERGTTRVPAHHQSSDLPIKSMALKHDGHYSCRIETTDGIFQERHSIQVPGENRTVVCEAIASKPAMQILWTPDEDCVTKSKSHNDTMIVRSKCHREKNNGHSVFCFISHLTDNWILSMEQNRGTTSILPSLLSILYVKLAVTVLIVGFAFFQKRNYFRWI
# T3: CD200 receptor (CD200R) on primary mouse cells, isoform not stated (mouse) (UniProt Q9ES57)
# T3 sequence: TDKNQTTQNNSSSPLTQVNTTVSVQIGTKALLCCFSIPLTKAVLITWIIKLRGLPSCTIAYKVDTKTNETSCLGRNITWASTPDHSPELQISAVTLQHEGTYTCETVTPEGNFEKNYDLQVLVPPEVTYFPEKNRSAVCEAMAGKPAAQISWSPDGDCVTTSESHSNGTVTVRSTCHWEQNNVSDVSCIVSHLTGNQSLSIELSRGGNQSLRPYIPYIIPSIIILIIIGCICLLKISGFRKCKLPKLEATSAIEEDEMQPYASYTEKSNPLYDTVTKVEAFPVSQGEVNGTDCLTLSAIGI
# B1: CD200Fc immunoadhesin (extracellular domain of CD200 linked to a murine IgG2a Fc region) (Fc fusion, mouse, UniProt O54901 31-232, looked up)
# chain: QVEVVTQDERKALHTTASLRCSLKTSQEPLIVTWQKKKAVSPENMVTYSKTHGVVIQPAYKDRINVTELGLWNSSITFWNTTLEDEGCYMCLFNTFGSQKVSGTACLTLYVQPIVHLHYNYFEDHLNITCSATARPAPAISWKGTGTGIENSTESHFHSNGTTSVTSILRVKDPKTQVGKEVICQVLYLGNVIDYKQSLDKG
# modifications: FITC-labelled in the binding assays
# notes: extracellular domain; Made in a baculovirus system in Sf insect cells; also called FITC-CD200Fc; FITC-CD200:Fc; not shown: murine IgG2a Fc region; the ch
# B2: mouse CD200 on dendritic cells (ligand, UniProt O54901 31-278, looked up)
# chain: QVEVVTQDERKALHTTASLRCSLKTSQEPLIVTWQKKKAVSPENMVTYSKTHGVVIQPAYKDRINVTELGLWNSSITFWNTTLEDEGCYMCLFNTFGSQKVSGTACLTLYVQPIVHLHYNYFEDHLNITCSATARPAPAISWKGTGTGIENSTESHFHSNGTTSVTSILRVKDPKTQVGKEVICQVLYLGNVIDYKQSLDKGFWFSVPLLLSIVSLVILLVLISILLYWKRHRNQERGESSQGMQRMK
# What was measured:
# murine CD200R2a = target: T1, murine CD200R2a; experiment: FACS, FITC-CD200Fc on COS cells transiently transfected with CD200R isoform cDNA
# Excerpt: (§1) In order to assess whether the various CD200R isoforms described could all serve as counter-igands for CD200, an immunoadhesin (CD200Fc) incorporating the extracellular domain of CD200 linked to a murine IgG2a Fc region as described (51) was used. CD200Fc was coupled to FITC and the inventors then examined by FACS analysis binding of FITC-labeled CD200Fc to COS cells transiently transfected with pBK vectors encoding cDNAs for the various CD200R isoforms. As control the inventors examined binding to COS cells transduced with empty pBK vectors. COS cells expressing the different CD200R isoforms all bound FITC-CD200Fc.
# murine CD200R3a = target: T2, murine CD200R3a; experiment: as above
# Excerpt: as §1
# [1] = target: T3, CD200 receptor (CD200R) on primary mouse cells, isoform not stated (mouse); experiment: cell-based or functional assay
Binder,binding result (murine CD200R2a),binding result (murine CD200R3a),IFNγ in MLC at 40 hrs; CD200R+ cells + CD200+ DC [1] [ng/mL],"IFNγ in MLC; CD200R+ cells + CD200+ DC, no mAb [1] [ng/mL]",IL-2 in MLC at 40 hrs; CD200R+ cells + CD200+ DC [1] [ng/mL],"IL-2 in MLC; CD200R+ cells + CD200+ DC, no mAb [1] [ng/mL]",IL-4 in MLC at 40 hrs; CD200R+ cells + CD200+ DC [1] [ng/mL],IL-10 in MLC at 40 hrs; CD200R+ cells + CD200+ DC [1] [ng/mL]
B1,binds,binds,–,–,–,–,–,–
B2,–,–,0.145,0.17,0.16,0.165,0.255,0.225
